We go through one protein from doi:10.1101/2020.08.14.248047v1.

Substrate in the data set: O=C(CCc1ccc(O)cc1)c1c(O)cc(O)cc1O[C@@H]1O[C@H](CO)[C@@H](O)[C@H](O)[C@H]1O
Nature of the data set: cells, lysate or membranes. Conditions: Xenopus oocytes, pH 5.0, 15 min uptake, cumulative transport assay.

As a reminder, the Km is the concentration of substrate that gives half-maximal velocity.

B1: PUP8 (AtPUP8) (Arabidopsis thaliana) (protein)
chain: MEITQVIYVNDHNNIEANLTGQEEMNTTMEIESSSVPQSKNYKKWLRISIYVFFVLACQALSTILGRVYYENGGKSTWMGTLVQLIGFPVLFLFRFFSQTKNPKPTEADFRKFSSFTILGSVYIVTGLLVSANSYMSSVGLLYLPVSTFSLILASQLAFTAFFSYFLNSQKFTPFIVNSLFLLTISSALLVVNTDSENTAKVSRVKYVIGIICTIGASAGIGLLLSLVQLILRKVLKKQTFSTVTDLVAYQSLVASCVVLIGLFASGEWKTLTSEMENYKLGKVPYVMTLASIAISWQVYTIGVVGLIFESSSVFSNSITAVGLPIVPVVAVIVFHDKMNASKIFSIILAIWGFISFVYQHYLDEKKLKTSHTSPVGDPHLLPAEEGHTNIHSV
Regarding B1, the Km was determined as 296 ± 39 µM.
